Laboratory results from patent US20260209761, “RNA-GUIDED ENDONUCLEASE SYSTEM AND USE THEREOF IN GENE EDITING” (HARBIN INSTITUTE OF TECHNOLOGY, published 2026).

Target: T1, FbRAD1/ISFba1 (RHS75625.1) (Firmicutes bacterium AM43-11BH)
T1 chain: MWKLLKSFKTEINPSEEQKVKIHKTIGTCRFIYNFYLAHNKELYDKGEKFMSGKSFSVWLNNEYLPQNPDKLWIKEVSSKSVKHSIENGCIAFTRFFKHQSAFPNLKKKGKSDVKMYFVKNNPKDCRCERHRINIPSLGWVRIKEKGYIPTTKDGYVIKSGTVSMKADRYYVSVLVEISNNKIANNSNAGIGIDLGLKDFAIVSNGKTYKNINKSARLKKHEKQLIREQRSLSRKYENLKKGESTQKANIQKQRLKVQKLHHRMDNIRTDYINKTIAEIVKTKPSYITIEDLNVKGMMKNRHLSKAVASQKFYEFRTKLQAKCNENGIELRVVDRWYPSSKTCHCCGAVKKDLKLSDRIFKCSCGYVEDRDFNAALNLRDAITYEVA
Assay: co-purified RNA, degraded by RNase not DNase; about 180 nt; RNA-seq
Settings: tags: GST (cleaved by PreScission), C-terminal 6His per expression cassette; stem loop, long hairpin with inner loop and pseudoknot (predicted)

B1: FbRAD1 RAGATH-18-associated RNA (ssRNA)
RNA: CUAAAACGCAAACGUAAGUAUGUACCGAAGGCUAUUUUCGGGAAUUUACGACUAUGGAGUGUACAAGAACUUGUGAGUAGAUAUGAUUUCGGUCAAUCCAAAGCAUACACGAUGAAAUAGUAAGUAAUGUUCGUGAGAACUUACAUUAUCUCGAUGUGAGCAUAUUUAAUCACAUUUUGAGUGGCAG
  binding result: binds
